Experiment [1] has as its target T1, Human TROP2 Protein, His Tag (Acro Biosystems) (human, UniProt P09758 27-274).
T1 construct: Bought antigen used at 50 nM in the Octet screen; also called TACSTD2; not shown: His tag
T1 sequence (looked up): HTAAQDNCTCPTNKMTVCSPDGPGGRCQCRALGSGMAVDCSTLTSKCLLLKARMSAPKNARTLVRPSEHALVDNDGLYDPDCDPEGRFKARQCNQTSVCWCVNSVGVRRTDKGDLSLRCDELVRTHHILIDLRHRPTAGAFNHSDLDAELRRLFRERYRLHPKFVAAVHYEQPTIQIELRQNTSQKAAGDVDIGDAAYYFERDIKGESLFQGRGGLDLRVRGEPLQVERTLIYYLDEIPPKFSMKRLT
Briefly: BLI (Octet) [1/2]. The protocol:
After allowing for four days of protein expression, cell culture supernatants were collected, quantified by SDS-PAGE analysis (DNS), and the pH dependence of the variant was evaluated using biolayer interferometry (BLI) on an Octet RED 96e instrument. Briefly, cell culture supernatants were diluted based on qualitative expression level of the variant determined by visual examination of SDS-PAGE gels, 5 μL of cell culture supernatant was diluted into 195 μL of 1×PBST, pH 7.4 for high expressors, 25 μL of cell culture supernatant was diluted into 175 μL of 1×PBST, pH 7.4 for medium expressors and 100 μL of cell culture supernatant was diluted into 100 μL of 1×PBST, pH 7.4 for low expressors for loading onto the sensor tips. The resulting diluted supernatants were then captured on an anti-human Fc sensor (Forte Bio). A baseline was established using 1×PBST (50 mM Potassium Phosphate Buffer+150 mM NaCl+0.05% Tween 20) pH 7.4, and the sensor was associated with 50 nM of TROP2 (Human TROP2 Protein, His Tag, Acro Biosystems) in 1×PBST pH 7.4 for 120 sec to generate an association curve. In the dissociation phase, the antibody-antigen complex on the sensor was exposed to 1×PBST pH 7.4 or pH 5.4, for 300 sec. Association and dissociation phase curves were examined for the starting ABPC antibody (with no substitutions) and each corresponding antibody variant at pH 5.4 and pH 7.4 to inform on two criteria: a) enhanced dissociation (i.e., higher koff values) at pH 5.4 due to histidine or alanine substitution compared to the starting ABPC, (with no substitutions), and b) reduced dissociation at pH 7.4 (i.e., lower koff values) compared to pH 5.4 in the antibody variant itself and with the starting ABPC (with no substitutions). […] It was also noted that while some mutations obliterated TROP2 binding, others were tolerated with little or n change in TROP2 binding kinetics.
(In BLI a coated tip is dipped into the sample, and binding shifts an interference pattern.)

The target of experiment [2] is T2, TROP2 on TROP2-positive NCI-H1975 cells (human, UniProt P09758 27-323).
T2 sequence: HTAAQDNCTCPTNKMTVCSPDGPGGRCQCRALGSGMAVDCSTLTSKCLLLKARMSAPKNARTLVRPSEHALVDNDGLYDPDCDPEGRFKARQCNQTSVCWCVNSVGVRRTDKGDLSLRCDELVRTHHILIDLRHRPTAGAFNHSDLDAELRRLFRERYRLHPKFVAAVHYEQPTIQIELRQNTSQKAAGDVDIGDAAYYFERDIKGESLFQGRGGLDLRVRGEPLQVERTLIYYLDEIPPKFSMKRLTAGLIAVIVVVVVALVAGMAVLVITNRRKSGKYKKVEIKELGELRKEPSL
Briefly: cell-based or functional assay.

B1: MYT11705 (antibody, V domains shown)
VH: QVQLQESGPGLVKPSETLSLTCTVSHGSISSYGVHWIRQPPGKGLEWIGVIWTSGVTDYNSALMGRVTISVDTSKNQFSLKLSSVTAADTAVYYCARDGDYDRYTMDYWGQGTLVTVSS
VL: DIVMTQSPDSLAVSLGERATINCRASKSVSTSGYSYMHWYQQKPGQPPKLLIYLASNLESGVPDRFSGSGSGTDFTLTISSLQAEDVAVYYCQHSRELPYTFGQGTKLEIK
notes: hu7E6SVG variant, His at HCV position 26 (H1 01); screened as IgG in Expi293 supernatant
Turning to B1, the binding result in experiment [1] is recorded as “binds”.

B2: MYT13289 (antibody, V domains shown)
VH: QVQLQESGPGLVKPSETLSLTCTVSGGSISSYGVHWIRQPPGKGLEWIGVIWTSGVTDYNSALMGRVTISVDTSKNQFSLKLSSVTAADTAVYYCARDGDYDHYTMDYWGQGTLVTVSS
VL: DIVMTQSPDSLAVSLGERATINCRASKSVSTSGYSYMHWYQQKPGQPPKLLIYLASNLESGVPDRFSGSGSGTDFTLTISSLQAEDVAVYYCHHSRELPYTFGQGTKLEIK
For the molecule B2, in experiment [2], the “FOW H1975 (10 nM)” value is 1.37 fold over parent antibody.

B3: MYT13288 (antibody, V domains shown)
VH: QVQLQESGPGLVKPSETLSLTCTVSGGSISSYGVHWIRQPPGKGLEWIGVIWTSGVTDYNSALMGRVTISVDTSKNQFSLKLSSVTAADTAVYYCARDGDYHRYTMDYWGQGTLVTVSS
VL: DIVMTQSPDSLAVSLGERATINCRASKSVSTSGYSYMHWYQQKPGQPPKLLIYLASNLESGVPDRFSGSGSGTDFTLTISSLQAEDVAVYYCHHSRELPYTFGQGTKLEIK
For B3, in experiment [2], the “FOW H1975 (10 nM)” value is 1.15 fold over parent antibody.

B4: MYT13300 (antibody, V domains shown)
VH: QVQLQESGPGLVKPSETLSLTCTVSGGSISSYGVHWIRQPPGKGLEWIGVIWTSGVTDYNSALMGRVTISVDTSKNQFSLKLSSVTAADTAVYYCARDGDYDRYTHDYWGQGTLVTVSS
VL: DIVMTQSPDSLAVSLGERATINCRASKSVSTSGYSYMHWYQQKPGQPPKLLIYLASNLESGVPDRFSGSGSGTDFTLTISSLQAEDVAVYYCQHSRHLPYTFGQGTKLEIK
B4: the “FOW H1975 (10 nM)” value in experiment [2] was determined as 1.39 fold over parent antibody.

B5: MYT13279 (antibody, V domains shown)
VH: QVQLQESGPGLVKPSETLSLTCTVSGGSISSYGVHWIRQPPGKGLEWIGVIWTSGVTDYNSALMGRVTISVDTSKNQFSLKLSSVTAADTAVYYCARDGDYDHYTMDYWGQGTLVTVSS
VL: DIVMTQSPDSLAVSLGERATINCRASKSVSTSGYSYMHWYQQKPGQPPKLLIYLASNLHSGVPDRFSGSGSGTDFTLTISSLQAEDVAVYYCQHSRELPYTFGQGTKLEIK
In the case of B5, the “FOW H1975 (10 nM)” value in experiment [2] worked out at 1.37 fold over parent antibody.

B6: MYT13446 (antibody, V domains shown)
VH: QVQLQESGPGLVKPSETLSLTCTVSGGSISSYGVHWIRQPPGKGLEWIGVIWTSGVTDYNSALMGRVTISVDTSKNQFSLKLSSVTAADTAVYYCARDGDYDHYTMDYWGQGTLVTVSS
VL: DIVMTQSPDSLAVSLGERATINCRASKSVSTSGYSYMHWYQQKPGQPPKLLIYLASNLHSGVPDRFSGSGSGTDFTLTISSLQAEDVAVYYCQHSRELPYHFGQGTKLEIK
As to B6, the “FOW H1975 (10 nM)” value in experiment [2] turned out to be 1.09 fold over parent antibody.

B7: MYT13299 (antibody, V domains shown)
VH: QVQLQESGPGLVKPSETLSLTCTVSGGSISSYGVHWIRQPPGKGLEWIGVIWTSGVTDYNSALMGRVTISVDTSKNQFSLKLSSVTAADTAVYYCARDGDYDHYTMDYWGQGTLVTVSS
VL: DIVMTQSPDSLAVSLGERATINCRASKSVSTSGYSYMHWYQQKPGQPPKLLIYLASNLESGVPDRFSGSGSGTDFTLTISSLQAEDVAVYYCQHSRHLPYTFGQGTKLEIK
B7: the “FOW H1975 (10 nM)” value in experiment [2] is 1.35 fold over parent antibody.

B8: MYT11706 (antibody, V domains shown)
VH: QVQLQESGPGLVKPSETLSLTCTVSGHSISSYGVHWIRQPPGKGLEWIGVIWTSGVTDYNSALMGRVTISVDTSKNQFSLKLSSVTAADTAVYYCARDGDYDRYTMDYWGQGTLVTVSS
VL: DIVMTQSPDSLAVSLGERATINCRASKSVSTSGYSYMHWYQQKPGQPPKLLIYLASNLESGVPDRFSGSGSGTDFTLTISSLQAEDVAVYYCQHSRELPYTFGQGTKLEIK
notes: hu7E6SVG variant, His at HCV position 27 (H1 02); screened as IgG in Expi293 supernatant
As to B8, in experiment [1], the binding result is recorded as “binds”.

B9: MYT11712 (antibody, V domains shown)
VH: QVQLQESGPGLVKPSETLSLTCTVSGGSISSYHVHWIRQPPGKGLEWIGVIWTSGVTDYNSALMGRVTISVDTSKNQFSLKLSSVTAADTAVYYCARDGDYDRYTMDYWGQGTLVTVSS
VL: DIVMTQSPDSLAVSLGERATINCRASKSVSTSGYSYMHWYQQKPGQPPKLLIYLASNLESGVPDRFSGSGSGTDFTLTISSLQAEDVAVYYCQHSRELPYTFGQGTKLEIK
notes: hu7E6SVG variant, His at HCV position 33 (H1 08); screened as IgG in Expi293 supernatant
Take B9: the binding result in experiment [1] is “binds”.

B10: MYT11713 (antibody, V domains shown)
VH: QVQLQESGPGLVKPSETLSLTCTVSGGSISSYGHHWIRQPPGKGLEWIGVIWTSGVTDYNSALMGRVTISVDTSKNQFSLKLSSVTAADTAVYYCARDGDYDRYTMDYWGQGTLVTVSS
VL: DIVMTQSPDSLAVSLGERATINCRASKSVSTSGYSYMHWYQQKPGQPPKLLIYLASNLESGVPDRFSGSGSGTDFTLTISSLQAEDVAVYYCQHSRELPYTFGQGTKLEIK
notes: hu7E6SVG variant, His at HCV position 34 (H1 09); screened as IgG in Expi293 supernatant
For the molecule B10, the binding result in experiment [1] is “binds”.

B11: MYT11711 (antibody, V domains shown)
VH: QVQLQESGPGLVKPSETLSLTCTVSGGSISSHGVHWIRQPPGKGLEWIGVIWTSGVTDYNSALMGRVTISVDTSKNQFSLKLSSVTAADTAVYYCARDGDYDRYTMDYWGQGTLVTVSS
VL: DIVMTQSPDSLAVSLGERATINCRASKSVSTSGYSYMHWYQQKPGQPPKLLIYLASNLESGVPDRFSGSGSGTDFTLTISSLQAEDVAVYYCQHSRELPYTFGQGTKLEIK
notes: hu7E6SVG variant, His at HCV position 32 (H1 07); screened as IgG in Expi293 supernatant
For the molecule B11, the binding result in experiment [1] was “binds”.

B12: MYT11710 (antibody, V domains shown)
VH: QVQLQESGPGLVKPSETLSLTCTVSGGSISHYGVHWIRQPPGKGLEWIGVIWTSGVTDYNSALMGRVTISVDTSKNQFSLKLSSVTAADTAVYYCARDGDYDRYTMDYWGQGTLVTVSS
VL: DIVMTQSPDSLAVSLGERATINCRASKSVSTSGYSYMHWYQQKPGQPPKLLIYLASNLESGVPDRFSGSGSGTDFTLTISSLQAEDVAVYYCQHSRELPYTFGQGTKLEIK
notes: hu7E6SVG variant, His at HCV position 31 (H1 06); screened as IgG in Expi293 supernatant
Consider B12, for which the binding result in experiment [1] was “binds”.

B13: MYT11709 (antibody, V domains shown)
VH: QVQLQESGPGLVKPSETLSLTCTVSGGSIHSYGVHWIRQPPGKGLEWIGVIWTSGVTDYNSALMGRVTISVDTSKNQFSLKLSSVTAADTAVYYCARDGDYDRYTMDYWGQGTLVTVSS
VL: DIVMTQSPDSLAVSLGERATINCRASKSVSTSGYSYMHWYQQKPGQPPKLLIYLASNLESGVPDRFSGSGSGTDFTLTISSLQAEDVAVYYCQHSRELPYTFGQGTKLEIK
notes: hu7E6SVG variant, His at HCV position 30 (H1 05); screened as IgG in Expi293 supernatant
In the case of B13, the binding result in experiment [1] is on record as “binds”.

B14: MYT11708 (antibody, V domains shown)
VH: QVQLQESGPGLVKPSETLSLTCTVSGGSHSSYGVHWIRQPPGKGLEWIGVIWTSGVTDYNSALMGRVTISVDTSKNQFSLKLSSVTAADTAVYYCARDGDYDRYTMDYWGQGTLVTVSS
VL: DIVMTQSPDSLAVSLGERATINCRASKSVSTSGYSYMHWYQQKPGQPPKLLIYLASNLESGVPDRFSGSGSGTDFTLTISSLQAEDVAVYYCQHSRELPYTFGQGTKLEIK
notes: hu7E6SVG variant, His at HCV position 29 (H1 04); screened as IgG in Expi293 supernatant
Take B14: in experiment [1], the binding result is “binds”.

B15: MYT11707 (antibody, V domains shown)
VH: QVQLQESGPGLVKPSETLSLTCTVSGGHISSYGVHWIRQPPGKGLEWIGVIWTSGVTDYNSALMGRVTISVDTSKNQFSLKLSSVTAADTAVYYCARDGDYDRYTMDYWGQGTLVTVSS
VL: DIVMTQSPDSLAVSLGERATINCRASKSVSTSGYSYMHWYQQKPGQPPKLLIYLASNLESGVPDRFSGSGSGTDFTLTISSLQAEDVAVYYCQHSRELPYTFGQGTKLEIK
notes: hu7E6SVG variant, His at HCV position 28 (H1 03); screened as IgG in Expi293 supernatant
Turning to B15, the binding result in experiment [1] is “binds”.

Values taken from US20260274985A1 (MYTHIC THERAPEUTICS, published 2026).
